Data as given in paper PMC8534003, “The Chemokine-Based Peptide, CXCL9(74-103), Inhibits Angiogenesis by Blocking Heparan Sulfate Proteoglycan-Mediated Signaling of Multiple Endothelial Growth Factors” (Cancers, 2021).

Assays:
[1] = test system: human microvascular endothelial cells (HMVECs); experiment: xCELLigence chemotaxis assay (HMVEC migration); format: cell-based; conditions: EGF 10 ng/mL, FGF-2 30 ng/mL or VEGF165 10 ng/mL in lower chamber
Protocol: To evaluate the effect of the CXCL9-derived peptides on growth factor-induced endothelial cell migration, the xCELLigence® real-time cell analyzer (RTCA DP) system (ACEA Biosciences, Inc.; San Diego, CA, USA) was used. First, 160 µL MCDB131 medium (Gibco) supplemented with 0.4% (v/v) FCS (control medium) or 160 µL control medium with 30 ng/mL FGF-2, 10 ng/mL VEGF165 or 10 ng/mL EGF were added to the lower chamber of a cell invasion/migration (CIM)-Plate (ACEA Biosciences, Inc.). After assembly of the lower and upper chamber, 50 µL of serum-free MCDB131 medium was added in the upper wells. Following equilibration of the plate at 37 °C for 1 h, HMVECs were added in the upper chamber at 4 × 10^4 cells in 100 µL/well. CXCL9(74-103) or CXCL9(86-103) was added together with the cells in the upper compartment at a concentration of 0.3 or 3 µM. The assembled CIM-Plate was left at room temperature for 30 min to allow the cells to settle onto the membrane. Finally, the plate was placed in the instrument at 37 °C to monitor cell migration for 15 h. Cell migration from one compartment to the other was recorded (one recording every minute) as changes in electrical impedance. These changes were converted into cell indices, as a measure of cell migration.

[2] = fold lower affinity than FGF-2; cited from earlier work
Source text: In our present study, we wanted to explore the potential of CXCL9(74-103), a high affinity GAG-binding peptide, to interfere with angiogenesis by targeting growth factor-induced signaling cascades and associated processes. […] The obtained KD value lies within the range of the concentrations that were applied in the different in vivo and in vitro assays reported here. FGF-2-mediated proliferation, chemotaxis and sprouting in vitro was diminished by CXCL9(74-103). Also in vivo, CXCL9(74-103) treatment attenuated FGF-2-mediated neovascularization in the Matrigel plug assay. The inhibitory mechanism responsible for countering FGF-2 could be that (1) by direct interaction with FGF-2, CXCL9(74-103) can t ...

[3] = test system: human microvascular endothelial cells (HMVECs); experiment: Endothelial cell proliferation assay (MTT or ATP lite); format: cell-based; conditions: EGF, VEGF165 5 ng/mL or FGF-2 3 ng/mL as single stimulus
Protocol: The ability of the CXCL9-derived peptides to inhibit growth factor-induced proliferation of endothelial cells was assessed. HMVECs were seeded at 5 × 10^3 cells/well in EBM™-2 medium containing 1% (v/v) FCS (proliferation medium). After settling of the cells, they were stimulated with EGF, VEGF165 (both 5 ng/mL) or FGF-2 (3 ng/mL) as a single stimulus or in combination with CXCL9(86-103) or CXCL9(74-103) at 0.3 or 3 µM in proliferation medium or left untreated. HMVECs were also treated with 0.3 or 3 µM of CXCL9(74-103) or 3 µM of CXCL9(86-103) alone to assess the effect of CXCL9-derived peptide treatment on spontaneous proliferation. After 3 to 4 days, a 3-(4,5-dimethylthiazol-2-yl)-2,5-diphenyl tetrazolium bromide (MTT) or ATP lite assay was performed. The ATP lite assay was performed according to the manufacturer’s instructions (Perkin Elmer, Waltham, MA). When MTT was used as substrate, the medium was replaced with 200 µL of MTT solution (RPMI without phenol red containing 0.4 g/L MTT) and the cells were incubated at 37 °C and 5% CO2 in the dark for 4 hours. Then, the MTT solution was discarded and the formed formazan crystals were dissolved in 200 µL acidic propanol [0.04 M HCl, 0.1% (v/v) NP-40 in isopropanol] under continuous shaking in the dark for 10 min. The optical densities were measured at 570 nm and 630 nm (reference wavelength).

[4] = test system: human microvascular endothelial cells (HMVECs); experiment: xCELLigence adhesion assay; format: cell-based; conditions: 50 ng/mL, 1 h, compared to untreated cells
Protocol: The wells of an E-plate (ACEA Biosciences, Inc.) were washed and coated with 0.1% (v/v) gelatin in phosphate-buffered saline (PBS) at 37 °C for 1 h. Following a washing step, wells were incubated with 0.1% (v/v) bovine serum albumin (BSA) in PBS at 37 °C for 1 h. After washing, 50 µL basal MCDB131 medium was added and the plate was allowed to equilibrate at 37 °C. HMVECs were harvested and seeded at 4 × 10^4 cells/well together with 50 ng/mL VEGF165 with or without 0.03, 0.3 or 3 µM of CXCL9(74-103) or 3 µM of CXCL9(86-103) in 100 µL control medium (vide supra). Real-time changes in electrical impedance depicted as cell indices, as measure for cell adhesion and spreading, were analyzed using the xCELLigence® RTCA DP System. The adhesion of HMVECs was analyzed 1 h after seeding.

B1: VEGF165: human recombinant VEGF165 (Biolegend), stimulus (protein)
chain: MNFLLSWVHWSLALLLYLHHAKWSQAAPMAEGGGQNHHEVVKFMDVYQRSYCHPIETLVDIFQEYPDEIEYIFKPSCVPLMRCGGCCNDEGLECVPTEESNITMQIMRIKPHQGQHIGEMSFLQHNKCECRPKKDRARQENPCGPCSERRKHLFVQDPQTCKCSCKNTDSRCKARQLELNERTCRCDKPRR
enhancement of migration by growth factor alone [1]: significant enhancement of endothelial cell migration
affinity for heparin compared to FGF-2 [2]: 8 fold
enhancement of proliferation by growth factor alone [3]: significant enhancement of proliferation
adhesion in response to VEGF165 alone [4]: HMVECs adhered more profoundly to the substratum compared to untreated cells
